B1: Cell division cycle-associated 7-like protein (Homo sapiens), Q96GN5 (parent)
chain: MELATRYQIPKEVADIFNAPSDDEEFVGFRDDVPMETLSSEESCDSFDSLESGKQQDVRFHSKYFTEELRRIFIEDTDSETEDFAGFTQSDLNGKTNPEVMVVESDLSDDGKASLVSEEEEDEEEDKATPRRSRSRRSSIGLRVAFQFPTKKLANKPDKNSSSEQLFSSARLQNEKKTILERKKDCRQVIQREDSTSESEDDSRDESQESSDALLKRTMNIKENKAMLAQLLAELNSMPDFFPVRTPTSASRKKTVRRAFSEGQITRRMNPTRSARPPEKFALENFTVSAAKFAEEFYSFRRRKTIGGKCREYRRRHRISSFRPVEDITEEDLENVAITVRDKIYDKVLGNTCHQCRQKTIDTKTVCRNQGCCGVRGQFCGPCLRNRYGEDVRSALLDPDWVCPPCRGICNCSYCRKRDGRCATGILIHLAKFYGYDNVKEYLESLQKELVEDN
partner: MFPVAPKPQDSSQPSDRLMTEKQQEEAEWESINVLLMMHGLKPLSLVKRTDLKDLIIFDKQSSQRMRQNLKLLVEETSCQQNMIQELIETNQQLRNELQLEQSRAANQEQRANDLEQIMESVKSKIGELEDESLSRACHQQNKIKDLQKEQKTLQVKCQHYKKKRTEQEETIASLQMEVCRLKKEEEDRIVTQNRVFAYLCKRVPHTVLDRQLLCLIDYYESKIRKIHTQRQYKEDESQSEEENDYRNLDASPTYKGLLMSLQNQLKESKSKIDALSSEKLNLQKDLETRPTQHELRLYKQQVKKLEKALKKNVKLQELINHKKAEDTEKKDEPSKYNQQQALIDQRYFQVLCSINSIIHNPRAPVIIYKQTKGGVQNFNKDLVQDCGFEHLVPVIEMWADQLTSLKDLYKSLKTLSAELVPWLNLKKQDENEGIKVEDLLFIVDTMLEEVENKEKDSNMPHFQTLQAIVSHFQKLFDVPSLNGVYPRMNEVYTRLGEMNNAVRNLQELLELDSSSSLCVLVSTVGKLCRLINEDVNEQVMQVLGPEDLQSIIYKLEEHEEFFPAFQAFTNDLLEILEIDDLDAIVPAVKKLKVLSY
B2: TBC1 domain family member 22B (Homo sapiens), Q9NU19 (parent)
chain: MAAENSKQFWKRSAKLPGSIQPVYGAQHPPLDPRLTKNFIKERSKVNTVPLKNKKASSFHEFARNTSDAWDIGDDEEEDFSSPSFQTLNSKVALATAAQVLENHSKLRVKPERSQSTTSDVPANYKVIKSSSDAQLSRNSSDTCLRNPLHKQQSLPLRPIIPLVARISDQNASGAPPMTVREKTRLEKFRQLLSSQNTDLDELRKCSWPGVPREVRPITWRLLSGYLPANTERRKLTLQRKREEYFGFIEQYYDSRNEEHHQDTYRQIHIDIPRTNPLIPLFQQPLVQEIFERILFIWAIRHPASGYVQGINDLVTPFFVVFLSEYVEEDVENFDVTNLSQDMLRSIEADSFWCMSKLLDGIQDNYTFAQPGIQKKVKALEELVSRIDEQVHNHFRRYEVEYLQFAFRWMNNLLMRELPLRCTIRLWDTYQSEPEGFSHFHLYVCAAFLIKWRKEILDEEDFQGLLMLLQNLPTIHWGNEEIGLLLAEAYRLKYMFADAPNHYRR
partner: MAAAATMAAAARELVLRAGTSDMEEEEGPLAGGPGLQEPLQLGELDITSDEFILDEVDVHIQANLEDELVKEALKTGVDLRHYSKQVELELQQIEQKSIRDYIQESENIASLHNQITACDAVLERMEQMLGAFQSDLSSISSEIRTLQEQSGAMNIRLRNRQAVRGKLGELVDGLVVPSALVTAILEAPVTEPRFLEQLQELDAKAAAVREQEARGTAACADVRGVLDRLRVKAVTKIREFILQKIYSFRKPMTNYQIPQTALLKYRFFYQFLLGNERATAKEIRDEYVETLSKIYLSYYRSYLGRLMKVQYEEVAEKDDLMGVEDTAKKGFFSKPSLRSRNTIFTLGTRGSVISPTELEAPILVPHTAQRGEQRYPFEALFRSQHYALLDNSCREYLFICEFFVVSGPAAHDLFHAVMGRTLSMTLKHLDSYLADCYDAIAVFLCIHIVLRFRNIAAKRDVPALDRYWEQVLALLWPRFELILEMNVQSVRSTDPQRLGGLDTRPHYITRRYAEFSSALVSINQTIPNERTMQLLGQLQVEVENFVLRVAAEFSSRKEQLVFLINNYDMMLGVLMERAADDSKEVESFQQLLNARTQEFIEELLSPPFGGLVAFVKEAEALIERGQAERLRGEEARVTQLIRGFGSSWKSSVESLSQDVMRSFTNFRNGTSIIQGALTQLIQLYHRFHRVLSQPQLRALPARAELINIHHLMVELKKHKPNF
B3: TBC1 domain family member 22B (Homo sapiens), Q9NU19 (parent)
chain: B2 chain
partner: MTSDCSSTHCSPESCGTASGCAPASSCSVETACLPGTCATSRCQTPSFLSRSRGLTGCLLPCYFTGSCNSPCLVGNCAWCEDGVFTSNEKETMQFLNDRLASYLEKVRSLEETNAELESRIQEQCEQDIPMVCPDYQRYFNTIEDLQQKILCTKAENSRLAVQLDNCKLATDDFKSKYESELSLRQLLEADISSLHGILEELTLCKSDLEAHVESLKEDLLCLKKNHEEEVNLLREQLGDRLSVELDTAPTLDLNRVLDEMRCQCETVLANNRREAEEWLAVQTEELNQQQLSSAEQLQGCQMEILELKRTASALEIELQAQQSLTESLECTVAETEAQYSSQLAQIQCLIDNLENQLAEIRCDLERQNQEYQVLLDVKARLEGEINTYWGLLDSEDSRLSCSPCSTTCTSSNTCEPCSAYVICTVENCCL
B4: TBC1 domain family member 22B (Homo sapiens), Q9NU19 (parent)
chain: B2 chain
partner: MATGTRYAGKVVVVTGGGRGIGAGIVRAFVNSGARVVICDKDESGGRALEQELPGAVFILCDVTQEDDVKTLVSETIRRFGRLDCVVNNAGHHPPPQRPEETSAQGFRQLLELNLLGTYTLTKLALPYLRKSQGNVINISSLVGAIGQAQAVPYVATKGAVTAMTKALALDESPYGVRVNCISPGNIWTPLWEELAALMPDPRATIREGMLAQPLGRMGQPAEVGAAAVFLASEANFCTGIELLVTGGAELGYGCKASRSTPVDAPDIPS

One test covers variants of B1. The following applies: with cep70_human CEP70, Q8NHQ1.
Take MELATRYQIPKEVADIFNAPSDDEEFVGFRDDVPMETLSSEESCDSFDSLESGKQQDVRFHSKYFTEELRRIFIEDTDSETEDFAGFTQSDLNGKTNPEVMVVESDLSDDGKASLVSEEEEDEEEDKATPRRSRSRRSSIGLRVAFQFPTKKLANKPDKNSSSEQLFSSARLQNEKKTILERKKDCRQVIQREDSTSESEDDSRDESQESSDALLKRTMNIKENKAMLAQLLAELNSMPDFFPVRTPTSASRKKTVRRAFSEGQITRHMNPTRSARPPEKFALENFTVSAAKFAEEFYSFRRRKTIGGKCREYRRRHRISSFRPVEDITEEDLENVAITVRDKIYDKVLGNTCHQCRQKTIDTKTVCRNQGCCGVRGQFCGPCLRNRYGEDVRSALLDPDWVCPPCRGICNCSYCRKRDGRCATGILIHLAKFYGYDNVKEYLESLQKELVEDN [R268H]: the “effect of a mutation on the interaction” value is reported as “with no effect”.

Variants of B2 are the subject of a further test. The following applies: with vps52_human VPS52, Q8N1B4.
On to MAAENSKQFWKRSAKLPGSIQPVYGAQHPPLDPRLTKNFIKERSKVNTVPLKNKKASSFHEFARNTSDAWDIGDDEEEDFSSPSFQTLNSKVALATAAQVLENHSKLRVKPERSQSTTSDVPANYKVIKSSSDAQLSRNSSDTCLRNPLHKQQSLPLRPIIPLVARISDQNASGAPPMTVREKTRLEKFRQLLSSQNTDLDELRKCSWPGVPREVRPITWRLLSGYLPANTERRKLTLQRKREEYFGFIEQYYDSRNEEHHQDTYRQIHIDIPRTNPLIPLFQQPLVQEIFERILFIWAIRHPASGYVQGINDLVTPFFVVFLSEYVEEDVENFDVTNLSQDMLRSIETDSFWCMSKLLDGIQDNYTFAQPGIQKKVKALEELVSRIDEQVHNHFRRYEVEYLQFAFRWMNNLLMRELPLRCTIRLWDTYQSEPEGFSHFHLYVCAAFLIKWRKEILDEEDFQGLLMLLQNLPTIHWGNEEIGLLLAEAYRLKYMFADAPNHYRR [A349T], for which the “effect of a mutation on the interaction” value is reported as “disrupting interaction strength”.

A further test covers variants of B3. The conditions noted are these: with KRT40, Q6A162.
In the case of MAAENSKQFWKRSAKLPGSIQPVYGAQHPPLDPRLTKNFIKERSKVNTVPLKNKKASSFHEFARNTSDAWDIGDDEEEDFSSPSFQTLNSKVALATAAQVLENHSKLRVKPERSQSTTSDVPANYKVIKSSSDAQLSRNSSDTCLRNPLHKQQSLPLRPIIPLVARISDQNASGAPPMTVREKTRLEKFRQLLSSQNTDLDELRKCSWPGVPREVRPITWRLLSGYLPANTERRKLTLQRKREEYFGFIEQYYDSRNEEHHQDTYRQIHIDIPRTNPLIPLFQQPLVQEIFERILFIWAIRHPASGYVQGINDLVTPFFVVFLSEYVEEDVENFDVTNLSQDMLRSIETDSFWCMSKLLDGIQDNYTFAQPGIQKKVKALEELVSRIDEQVHNHFRRYEVEYLQFAFRWMNNLLMRELPLRCTIRLWDTYQSEPEGFSHFHLYVCAAFLIKWRKEILDEEDFQGLLMLLQNLPTIHWGNEEIGLLLAEAYRLKYMFADAPNHYRR [A349T], the “effect of a mutation on the interaction” value is reported as “disrupting interaction strength”.

The variants in a further test derive from B4. The following applies: with dhb14_human HSD17B14, Q9BPX1.
As to MAAENSKQFWKRSAKLPGSIQPVYGAQHPPLDPRLTKNFIKERSKVNTVPLKNKKASSFHEFARNTSDAWDIGDDEEEDFSSPSFQTLNSKVALATAAQVLENHSKLRVKPERSQSTTSDVPANYKVIKSSSDAQLSRNSSDTCLRNPLHKQQSLPLRPIIPLVARISDQNASGAPPMTVREKTRLEKFRQLLSSQNTDLDELRKCSWPGVPREVRPITWRLLSGYLPANTERRKLTLQRKREEYFGFIEQYYDSRNEEHHQDTYRQIHIDIPRTNPLIPLFQQPLVQEIFERILFIWAIRHPASGYVQGINDLVTPFFVVFLSEYVEEDVENFDVTNLSQDMLRSIETDSFWCMSKLLDGIQDNYTFAQPGIQKKVKALEELVSRIDEQVHNHFRRYEVEYLQFAFRWMNNLLMRELPLRCTIRLWDTYQSEPEGFSHFHLYVCAAFLIKWRKEILDEEDFQGLLMLLQNLPTIHWGNEEIGLLLAEAYRLKYMFADAPNHYRR [A349T], the “effect of a mutation on the interaction” value is “disrupting interaction strength”.

Values taken from IntAct's records for PubMed 29892012.
